Source: paper PMC9697831 (2022)
No end group written: not given here. enterokinase site = enterokinase site: N-terminal 6xHis-tag carrying an enterokinase cleavage site; factor Xa site = factor Xa site: N-terminal 6xHis-tag carrying a factor Xa cleavage site

Target: Kv1.3 (Homo sapiens, UniProt P22001)
Experiment: whole-cell patch clamp

Chain of Kv1.3 (P22001 whole entry): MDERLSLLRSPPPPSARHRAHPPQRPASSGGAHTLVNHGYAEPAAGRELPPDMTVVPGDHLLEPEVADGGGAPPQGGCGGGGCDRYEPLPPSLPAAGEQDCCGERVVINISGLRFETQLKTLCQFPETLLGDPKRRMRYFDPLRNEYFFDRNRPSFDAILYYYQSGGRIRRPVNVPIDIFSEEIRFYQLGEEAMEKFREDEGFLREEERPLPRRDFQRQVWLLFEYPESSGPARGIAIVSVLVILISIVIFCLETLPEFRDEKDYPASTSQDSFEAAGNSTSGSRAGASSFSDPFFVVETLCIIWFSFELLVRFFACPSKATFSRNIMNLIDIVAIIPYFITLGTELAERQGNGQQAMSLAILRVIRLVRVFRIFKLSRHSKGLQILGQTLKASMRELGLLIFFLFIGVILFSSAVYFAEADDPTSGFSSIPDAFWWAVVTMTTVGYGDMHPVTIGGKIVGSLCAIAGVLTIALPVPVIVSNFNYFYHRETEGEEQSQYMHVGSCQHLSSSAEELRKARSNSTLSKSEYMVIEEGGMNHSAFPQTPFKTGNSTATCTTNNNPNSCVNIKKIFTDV

| Binder | Kd |
| --- | --- |
| {6xHis tag-enterokinase site}-WCSTCLDLACGASRECYDPCFKAFGRAHGKCMNNKCRCYT (disulfide (positions not given here); ends not checked) [Ts6 (Tag-Ts6)] | 887 nM |
| WCSTCLDLACGASRECYDPCFKAFGRAHGKCMNNKCRCYT [Ts6 (Untag-Ts6)] | 29.1 nM |
| {6xHis tag-factor Xa site}-AAAISCVGSPECPPKCRAQGCKNGKCMNRKCECYYC (disulfide (positions not given here); ends not checked) [Vm24 (Tag-Vm24)] | 0.0044 nM |
| QKECTGPQHCTNFCRKNKCTHGKCMNRKCKCFNCK [Anuroctoxin (Untag-AnTx)] | 0.72 nM |
| QKECTGPQHCTNFCRKNKCTHGKCMNRKCKCFNCK (N-terminal 6xHis-tag with enterokinase site) [Anuroctoxin (Tag-AnTx)] | 1.29 nM |
